Test results reported in patent US20260035450A1.

Legend:
[1] = target: T1, recombinant human ANGPTL3 (rhANGPTL3) (SEQ ID NO:1) (human) (UniProt Q9Y5C1); experiment: SE-UPLC of antibody mixed with rhANGPTL3 (1:3 molar ratio), run buffer pH 7.4
T1 sequence: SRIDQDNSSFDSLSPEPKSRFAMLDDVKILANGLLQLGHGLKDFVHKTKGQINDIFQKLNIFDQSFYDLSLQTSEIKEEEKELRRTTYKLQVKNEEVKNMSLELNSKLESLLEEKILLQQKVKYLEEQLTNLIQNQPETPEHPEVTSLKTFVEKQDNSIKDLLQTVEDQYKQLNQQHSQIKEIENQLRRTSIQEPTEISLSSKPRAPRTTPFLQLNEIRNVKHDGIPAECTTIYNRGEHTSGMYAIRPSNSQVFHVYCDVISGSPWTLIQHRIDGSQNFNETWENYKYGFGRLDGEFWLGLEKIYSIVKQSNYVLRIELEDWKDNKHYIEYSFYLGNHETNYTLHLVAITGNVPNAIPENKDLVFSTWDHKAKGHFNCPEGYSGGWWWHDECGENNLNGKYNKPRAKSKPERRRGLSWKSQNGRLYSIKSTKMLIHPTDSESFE

[2] = target: T1, recombinant human ANGPTL3 (rhANGPTL3) (SEQ ID NO:1) (human); experiment: SE-UPLC of antibody mixed with rhANGPTL3 (1:3 molar ratio), run buffer pH 6.0
[3] = target: T1, recombinant human ANGPTL3 (rhANGPTL3) (SEQ ID NO:1) (human); experiment: SE-UPLC of antibody mixed with rhANGPTL3 (1:3 molar ratio); change of mean retention time from pH 7.4 to 6.0
[4] = target: T1, recombinant human ANGPTL3 (rhANGPTL3) (SEQ ID NO:1) (human); experiment: cell-based or functional assay

Chain of evinacumab sequence identical analogue (SIA) (antibody) (VH): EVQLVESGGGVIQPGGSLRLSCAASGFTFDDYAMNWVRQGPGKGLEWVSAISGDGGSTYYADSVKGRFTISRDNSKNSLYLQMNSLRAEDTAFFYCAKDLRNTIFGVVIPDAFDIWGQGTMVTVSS
Chain of evinacumab sequence identical analogue (SIA) (antibody) (VL): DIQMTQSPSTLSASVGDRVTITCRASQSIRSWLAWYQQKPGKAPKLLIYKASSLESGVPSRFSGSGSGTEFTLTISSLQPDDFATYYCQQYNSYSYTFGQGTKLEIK

## evinacumab sequence identical analogue (SIA) (antibody)
[1]
  MRT (mean retention time of immune complex), pH7.4: 3.72 min
  RT (retention time of immune complex), pH7.4: 3.72 min
[2]
  MRT (mean retention time of immune complex), pH6.0: 3.82 min
  RT (retention time of immune complex), pH6.0: 3.83 min
[3]
  MRT shift, pH7.4 -> pH6.0: 0.1 min
[4]
  Average relative IC50 (inhibition of rhANGPTL3-mediated LPL inhibition) (relative to evinacumab SIA): 1
